Three molecules from article PMC5632138 (Journal of molecular biology, 2017) can be followed below.

For orientation: Kd means the free concentration of one partner at which half of the binding sites on the other are occupied at equilibrium, for simple one-to-one binding. Higher therefore signals lower affinity.

The target in data set [1] is T1, MED25 ACID Gln430Glu (analyte) (human, UniProt Q71SY5 391-553, Gln430Glu).
T1 sequence (looked up): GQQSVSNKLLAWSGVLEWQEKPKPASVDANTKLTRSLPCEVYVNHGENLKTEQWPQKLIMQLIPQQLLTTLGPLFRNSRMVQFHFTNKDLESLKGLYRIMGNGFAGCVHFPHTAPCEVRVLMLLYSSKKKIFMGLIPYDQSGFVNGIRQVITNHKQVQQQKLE
The data set is described as follows: BLI. (In general: In BLI a coated tip is dipped into the sample, and binding shifts an interference pattern.)

For data set [2], the target named is T2, MED25 ACID Arg466Glu (analyte) (human, UniProt Q71SY5 391-553, Arg466Glu).
T2 sequence (looked up): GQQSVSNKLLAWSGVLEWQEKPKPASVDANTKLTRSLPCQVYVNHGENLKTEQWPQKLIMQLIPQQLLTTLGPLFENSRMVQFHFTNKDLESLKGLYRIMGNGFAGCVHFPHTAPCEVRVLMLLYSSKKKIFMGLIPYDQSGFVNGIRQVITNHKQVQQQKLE
The data set is described as follows: BLI.

Data set [3] concerns the target T3, MED25 ACID His474Glu (analyte) (human, UniProt Q71SY5 391-553, His474Glu).
T3 sequence (looked up): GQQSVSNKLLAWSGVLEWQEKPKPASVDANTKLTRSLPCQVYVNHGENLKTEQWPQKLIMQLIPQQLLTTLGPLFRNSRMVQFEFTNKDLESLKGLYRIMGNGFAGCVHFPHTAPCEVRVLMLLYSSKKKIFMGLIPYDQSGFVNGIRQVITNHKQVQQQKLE
The data set is described as follows: BLI.

Data set [4] deals with T4, MED25 ACID Tyr487Ser (analyte) (human, UniProt Q71SY5 391-553, Tyr487Ser).
T4 sequence (looked up): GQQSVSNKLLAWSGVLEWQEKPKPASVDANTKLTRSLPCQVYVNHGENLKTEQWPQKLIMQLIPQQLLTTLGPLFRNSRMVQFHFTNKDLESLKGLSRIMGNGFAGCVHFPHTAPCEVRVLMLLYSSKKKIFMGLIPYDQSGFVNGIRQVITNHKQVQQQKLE
Description: BLI.

Data set [5] addresses T5, MED25 ACID Leu514Glu (analyte) (human, UniProt Q71SY5 391-553, Leu514Glu).
T5 sequence (looked up): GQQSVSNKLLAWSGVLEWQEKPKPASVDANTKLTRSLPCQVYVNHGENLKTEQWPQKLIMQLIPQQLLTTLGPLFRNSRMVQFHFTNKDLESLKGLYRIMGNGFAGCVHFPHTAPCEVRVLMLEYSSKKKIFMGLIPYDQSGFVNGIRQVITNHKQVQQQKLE
Description: BLI.

Data set [6] addresses T6, MED25 ACID Lys518Ala/Lys519Ala/Lys520Ala (analyte) (human, UniProt Q71SY5 391-553, Lys518Ala | Lys519Ala | Lys520Ala).
T6 sequence (looked up): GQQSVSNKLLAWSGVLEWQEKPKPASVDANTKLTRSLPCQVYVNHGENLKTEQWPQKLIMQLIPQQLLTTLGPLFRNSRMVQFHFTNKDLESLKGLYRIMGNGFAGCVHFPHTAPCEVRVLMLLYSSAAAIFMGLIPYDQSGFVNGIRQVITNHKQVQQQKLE
The data set is described as follows: BLI.

In data set [7] the target is T7, MED25 ACID Ile521Glu (analyte) (human, UniProt Q71SY5 391-553, Ile521Glu).
T7 sequence (looked up): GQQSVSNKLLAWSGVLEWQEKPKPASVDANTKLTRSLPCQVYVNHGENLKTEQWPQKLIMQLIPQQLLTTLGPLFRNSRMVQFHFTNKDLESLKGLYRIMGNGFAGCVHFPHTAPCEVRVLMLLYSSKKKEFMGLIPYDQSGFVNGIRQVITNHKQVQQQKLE
Description: BLI.

Data set [8] deals with T8, MED25 ACID Met523Glu (analyte) (human, UniProt Q71SY5 391-553, Met523Glu).
T8 sequence (looked up): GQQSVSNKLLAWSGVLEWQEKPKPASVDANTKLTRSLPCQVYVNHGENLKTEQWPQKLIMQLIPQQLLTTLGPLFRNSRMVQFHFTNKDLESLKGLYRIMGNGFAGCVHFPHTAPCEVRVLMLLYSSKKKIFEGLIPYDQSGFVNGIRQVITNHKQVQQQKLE
The data set is described as follows: BLI.

Data set [9] deals with T9, MED25 ACID (residues 391–553), from pET28 (human, UniProt Q71SY5 391-553).
T9 sequence (looked up): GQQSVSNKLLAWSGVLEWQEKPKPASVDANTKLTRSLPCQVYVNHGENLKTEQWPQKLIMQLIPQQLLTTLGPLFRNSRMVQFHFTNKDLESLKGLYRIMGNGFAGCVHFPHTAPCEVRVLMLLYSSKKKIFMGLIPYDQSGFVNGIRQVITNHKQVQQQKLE
Description: NMR titration.

Another data set deals with ETV4 Leu430Ala (UniProt P43268 1-484, L430A). Description: EMSA. Background: In EMSA bound probe runs differently from free probe, usually more slowly.
Another data set has as its target ETV4 Phe428Ala/Phe432Ala (UniProt P43268 1-484, F428A;F432A). The data set is described as follows: EMSA.
In the next data set the target is ETV4 WT;MED25 ACID (human?;human, UniProt P43268;Q71SY5 1-484;391-553, |). Description: EMSA.
Sequence of ETV4 WT;MED25 ACID (P43268 whole entry, one chain of several): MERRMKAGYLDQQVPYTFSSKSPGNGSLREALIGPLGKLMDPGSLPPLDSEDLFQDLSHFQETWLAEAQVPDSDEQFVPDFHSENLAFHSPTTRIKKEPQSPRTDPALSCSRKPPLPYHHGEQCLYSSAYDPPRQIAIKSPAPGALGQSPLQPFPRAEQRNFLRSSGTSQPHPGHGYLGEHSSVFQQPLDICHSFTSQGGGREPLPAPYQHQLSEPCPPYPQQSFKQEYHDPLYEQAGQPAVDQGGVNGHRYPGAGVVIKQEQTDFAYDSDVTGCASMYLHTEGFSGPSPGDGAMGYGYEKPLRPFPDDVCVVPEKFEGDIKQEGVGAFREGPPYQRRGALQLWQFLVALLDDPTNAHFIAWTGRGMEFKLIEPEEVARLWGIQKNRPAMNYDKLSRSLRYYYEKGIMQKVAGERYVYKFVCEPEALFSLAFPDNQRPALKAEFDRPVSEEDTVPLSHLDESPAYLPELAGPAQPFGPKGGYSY

Sequence of ETV4 Leu430Ala (P43268 whole entry L430A): as the sequence (P43268 whole entry, one chain of several) above, with L430A counted along it
Sequence of ETV4 Phe428Ala/Phe432Ala (P43268 whole entry F428A/F432A): as the sequence (P43268 whole entry, one chain of several) above, with F428A, F432A counted along it

B1: ETV4^337–436 (DNA-binding domain), biotinylated ligand for biolayer interferometry (domain or fragment, UniProt P43268 337-436, looked up)
chain: RRGALQLWQFLVALLDDPTNAHFIAWTGRGMEFKLIEPEEVARLWGIQKNRPAMNYDKLSRSLRYYYEKGIMQKVAGERYVYKFVCEPEALFSLAFPDNQ
modifications: biotin (biotinylated; D-biotin added at the induction point)
Consider B1, for which the binding result in [1], in [2], in [3], in [4], in data set [5] and in data set [6] was “binds” each time. Moreover, the binding result in [7] and in data set [8] was “binds” in each case.

B2: ETV4^337–436 (DNA-binding domain), from pET28 (domain or fragment, UniProt P43268 337-436, looked up)
chain: RRGALQLWQFLVALLDDPTNAHFIAWTGRGMEFKLIEPEEVARLWGIQKNRPAMNYDKLSRSLRYYYEKGIMQKVAGERYVYKFVCEPEALFSLAFPDNQ
On to B2, for which the binding result in [9] is given as “binds”.

B3: 27-bp consensus ETS duplex (dsDNA)
DNA 1: TCGACGGCCAAGCCGGAAGTGAGTGCC
DNA 2: TCGAGGCACTCACTTCCGGCTTGGCCG
As for B3, the equilibrium dissociation constant (Kd) stood at 1.9 ± 0.4 nM in the data set with ETV4 Leu430Ala, 3.7 ± 0.8 nM with ETV4 Phe428Ala/Phe432Ala and 2.1 ± 0.5 nM with ETV4 WT;MED25 ACID.
